Target: T1, Abp1 SH3 (ABP1_YEAST), P15891
T1 chain: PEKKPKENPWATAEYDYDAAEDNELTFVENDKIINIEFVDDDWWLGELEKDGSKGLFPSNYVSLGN
Assay: SPOT array

LQVHRDQPREKRP [YDR176W 173-185]
normalised SPOT signal, Boehringer light units (BLU); mean over the file's lines of this peptide: 140

LSKKENKVGSPEKP [YOR244W 327-340]
normalised SPOT signal, Boehringer light units (BLU); mean over the file's lines of this peptide: 32.6

LSHRLWLYAAPKRP [YMR156C 126-139]
normalised SPOT signal, Boehringer light units (BLU); mean over the file's lines of this peptide: 171

LQEDLHDPLEFKP [YKL105C 259-271]
normalised SPOT signal, Boehringer light units (BLU); mean over the file's lines of this peptide: 74.4

LNVSAPVVADPTRP [YNR014W 72-85]
normalised SPOT signal, Boehringer light units (BLU); mean over the file's lines of this peptide: 156

LFGSGIGEEAPTKP [YJL095W 372-385]
normalised SPOT signal, Boehringer light units (BLU); mean over the file's lines of this peptide: 118

LKERANKPKRKRP [YFR013W 73-85]
normalised SPOT signal, Boehringer light units (BLU); mean over the file's lines of this peptide: 157

LKLSNISHHSPVKP [YBR050C 283-296]
normalised SPOT signal, Boehringer light units (BLU); mean over the file's lines of this peptide: 103

LLSKVHDPNIPLRP [YGR184C 639-652]
normalised SPOT signal, Boehringer light units (BLU); mean over the file's lines of this peptide: 135

LMMPVMVPTVYKP [YPR013C 154-166]
normalised SPOT signal, Boehringer light units (BLU); mean over the file's lines of this peptide: 188

LQSQFFDSMSPVRP [YGL003C 218-231]
normalised SPOT signal, Boehringer light units (BLU); mean over the file's lines of this peptide: 67.6

LNLIGRRSASPYRP [YDL033C 6-19]
normalised SPOT signal, Boehringer light units (BLU); mean over the file's lines of this peptide: 144

LNLQHQLEYWPHRP [YLR436C 877-890]
normalised SPOT signal, Boehringer light units (BLU); mean over the file's lines of this peptide: 97.9

LQKKNDRPSPLKP [YKL101W 858-870]
normalised SPOT signal, Boehringer light units (BLU); mean over the file's lines of this peptide: 450

LIDPRVDPILMRP [YER101C 153-165]
normalised SPOT signal, Boehringer light units (BLU); mean over the file's lines of this peptide: 75.9

LLPPPPPPPYQRP [YPL063W 179-191]
normalised SPOT signal, Boehringer light units (BLU); mean over the file's lines of this peptide: 111

LQHAAEPPVEKRP [YDR174W 207-219]
normalised SPOT signal, Boehringer light units (BLU); mean over the file's lines of this peptide: 54.2

LHQYLSETYGPTKP [YGL174W 3-16]
normalised SPOT signal, Boehringer light units (BLU); mean over the file's lines of this peptide: 39

LLQEDSRIMPPLKP [YBR133C 322-335]
normalised SPOT signal, Boehringer light units (BLU); mean over the file's lines of this peptide: 185

LIPVQELPLLLKP [YML010W 362-374]
normalised SPOT signal, Boehringer light units (BLU); mean over the file's lines of this peptide: 74.2

LRLKKSPLKVPSRP [YOR081C 655-668]
normalised SPOT signal, Boehringer light units (BLU); mean over the file's lines of this peptide: 452

LRQEYSFSLDPDRP [YPR107C 19-32]
normalised SPOT signal, Boehringer light units (BLU); mean over the file's lines of this peptide: 144

LISKWTIMPHPNRP [YOL008W 135-148]
normalised SPOT signal, Boehringer light units (BLU); mean over the file's lines of this peptide: 1030

LQELKFSPVINKP [YLR022C 137-149]
normalised SPOT signal, Boehringer light units (BLU); mean over the file's lines of this peptide: 66

LHGNTNAPTPLRP [YPR099C 85-97]
normalised SPOT signal, Boehringer light units (BLU); mean over the file's lines of this peptide: 69

LLRRNPSPSIVKP [YFL021W 256-268]
normalised SPOT signal, Boehringer light units (BLU); mean over the file's lines of this peptide: 1070

LKPENILLSAPDKP [YJL141C 497-510]
normalised SPOT signal, Boehringer light units (BLU); mean over the file's lines of this peptide: 7.9

LLHQYDDPLMFKP [YDL180W 44-56]
normalised SPOT signal, Boehringer light units (BLU); mean over the file's lines of this peptide: 19.6

LLRLRPRPLLLRP [YKR047W 79-91]
normalised SPOT signal, Boehringer light units (BLU); mean over the file's lines of this peptide: 249

LKSLNLPQLPPPKP [YDR266C 568-581]
normalised SPOT signal, Boehringer light units (BLU); mean over the file's lines of this peptide: 40.9

LPQDYYDPSFMRP [YIL108W 388-400]
normalised SPOT signal, Boehringer light units (BLU); mean over the file's lines of this peptide: 153

LKKSGKLPTWVKP [YLR193C 56-68]
normalised SPOT signal, Boehringer light units (BLU); mean over the file's lines of this peptide: 40.8

LNDPTATPFTSRP [YNL091W 1210-1222]
normalised SPOT signal, Boehringer light units (BLU); mean over the file's lines of this peptide: 130

LFDGPENVINPLKP [YDR392W 289-302]
normalised SPOT signal, Boehringer light units (BLU); mean over the file's lines of this peptide: 35

LHLEKMKPDLKKP [YOL078W 925-937]
normalised SPOT signal, Boehringer light units (BLU); mean over the file's lines of this peptide: 88.4

LIPELPSPKDLRP [YMR049C 412-424]
normalised SPOT signal, Boehringer light units (BLU); mean over the file's lines of this peptide: 81.6

LKSFFTNPNKKRP [YOR098C 23-35]
normalised SPOT signal, Boehringer light units (BLU); mean over the file's lines of this peptide: 323

LHYHVIGSNGPAKP [YGR198W 51-64]
normalised SPOT signal, Boehringer light units (BLU); mean over the file's lines of this peptide: 60.8

LGKVVAVKIIPKKP [YKL048C 110-123]
normalised SPOT signal, Boehringer light units (BLU); mean over the file's lines of this peptide: 185

LNNLLAPPLSPTKP [YDR425W 249-262]
normalised SPOT signal, Boehringer light units (BLU); mean over the file's lines of this peptide: 79.6

LLEAIDAIEQPSRP [YBR118W 226-239]
normalised SPOT signal, Boehringer light units (BLU); mean over the file's lines of this peptide: 41.3

LNSSVVVPKTTKP [YIL168W 85-97]
normalised SPOT signal, Boehringer light units (BLU); mean over the file's lines of this peptide: 114

LNALNVNSHAPTKP [YOR059C 245-258]
normalised SPOT signal, Boehringer light units (BLU); mean over the file's lines of this peptide: 171

LNDSMFFPYPFKP [YGL131C 434-446]
normalised SPOT signal, Boehringer light units (BLU); mean over the file's lines of this peptide: 50.6

LLRENTTILDPSKP [YKR056W 387-400]
normalised SPOT signal, Boehringer light units (BLU); mean over the file's lines of this peptide: 177

LIARNVRTFKPFKP [YNL213C 178-191]
normalised SPOT signal, Boehringer light units (BLU); mean over the file's lines of this peptide: 176

LRNTTTYKSRPDRP [YBR289W 754-767]
normalised SPOT signal, Boehringer light units (BLU); mean over the file's lines of this peptide: 273

LQQEQNTPPLPPKP [YCL008C 171-184]
normalised SPOT signal, Boehringer light units (BLU); mean over the file's lines of this peptide: 82.6

LILGKMVKWGPLRP [YOL072W 276-289]
normalised SPOT signal, Boehringer light units (BLU); mean over the file's lines of this peptide: 404

LQPQNQAPLEPLKP [YIR006C 225-238]
normalised SPOT signal, Boehringer light units (BLU); mean over the file's lines of this peptide: 25.4

LLQQQRVDVVPPKP [YML113W 123-136]
normalised SPOT signal, Boehringer light units (BLU); mean over the file's lines of this peptide: 140

LLKKGVNPKAKRP [YNL061W 602-614]
normalised SPOT signal, Boehringer light units (BLU); mean over the file's lines of this peptide: 54.3

LIKSILNRSVPKRP [YAL017W 1330-1343]
normalised SPOT signal, Boehringer light units (BLU); mean over the file's lines of this peptide: 324

LITRLRVPTIKRP [YOR147W 33-45]
normalised SPOT signal, Boehringer light units (BLU); mean over the file's lines of this peptide: 748

LHLIEILPKLIKP [YMR110C 95-107]
normalised SPOT signal, Boehringer light units (BLU); mean over the file's lines of this peptide: 110

LGIDKRSSTKPTKP [YLR054C 309-322]
normalised SPOT signal, Boehringer light units (BLU); mean over the file's lines of this peptide: 188

LKYFGKALENPTRP [YCR012W 192-205]
normalised SPOT signal, Boehringer light units (BLU); mean over the file's lines of this peptide: 117

LKKTLKKKKTPKKP [YKR084C 74-87]
normalised SPOT signal, Boehringer light units (BLU); mean over the file's lines of this peptide: 163

Source: paper PMC314469, “Protein Interaction Networks by Proteome Peptide Scanning” (PLoS Biology, 2004)
